One substance from PMC3320567 can be followed below.

For the assay, the target named is STAT6 (pcDNA4-STAT6-mychis expression construct) (UniProt P42226).
Sequence of UniProt P42226 (P42226 whole entry): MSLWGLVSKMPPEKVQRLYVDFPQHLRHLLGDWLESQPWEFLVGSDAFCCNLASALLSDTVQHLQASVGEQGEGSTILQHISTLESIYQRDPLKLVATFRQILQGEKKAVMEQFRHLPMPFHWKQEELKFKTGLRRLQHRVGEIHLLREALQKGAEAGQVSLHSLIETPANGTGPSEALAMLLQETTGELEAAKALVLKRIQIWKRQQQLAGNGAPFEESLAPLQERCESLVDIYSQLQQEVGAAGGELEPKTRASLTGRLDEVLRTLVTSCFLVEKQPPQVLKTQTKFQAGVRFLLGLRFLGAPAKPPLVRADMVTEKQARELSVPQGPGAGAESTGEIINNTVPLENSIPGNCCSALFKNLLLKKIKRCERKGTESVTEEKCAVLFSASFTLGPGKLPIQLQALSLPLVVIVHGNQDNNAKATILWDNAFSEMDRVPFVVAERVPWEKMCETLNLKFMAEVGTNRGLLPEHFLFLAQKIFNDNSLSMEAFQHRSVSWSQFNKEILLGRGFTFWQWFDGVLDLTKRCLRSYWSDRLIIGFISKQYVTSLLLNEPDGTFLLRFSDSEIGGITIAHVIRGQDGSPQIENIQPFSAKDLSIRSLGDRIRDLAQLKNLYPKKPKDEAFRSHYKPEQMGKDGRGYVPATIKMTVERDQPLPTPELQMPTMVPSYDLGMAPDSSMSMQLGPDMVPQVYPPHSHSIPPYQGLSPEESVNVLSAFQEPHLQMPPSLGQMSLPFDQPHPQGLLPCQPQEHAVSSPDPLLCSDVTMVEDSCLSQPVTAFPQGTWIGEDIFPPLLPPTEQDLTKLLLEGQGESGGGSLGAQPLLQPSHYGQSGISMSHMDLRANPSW

In turn, HA-Tip-YYFY (Y127F) (natural protein) came in with an STAT6-responsive luciferase reporter in 293T cells transfected with Lck and Tip variants, against wildtype Tip (fold reduction) of 3.
